Assay results: PMC9482650, “Quantitative fragmentomics allow affinity mapping of interactomes” (Nature Communications, 2022)

T1: DFNB31_1, Q9P202
T1 sequence (Q9P202 135-233, limits assumed, looked up): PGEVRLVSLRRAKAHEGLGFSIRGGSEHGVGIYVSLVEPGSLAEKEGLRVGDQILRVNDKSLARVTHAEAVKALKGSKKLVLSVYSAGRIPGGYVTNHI

T2: PTPN13_1, Q12923
T2 sequence (Q12923 1088-1188, limits assumed, looked up): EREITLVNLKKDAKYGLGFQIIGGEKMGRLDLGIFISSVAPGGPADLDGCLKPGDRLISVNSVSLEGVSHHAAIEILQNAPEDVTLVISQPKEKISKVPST

T3: SYNJ2BP, P57105
T3 sequence (P57105 8-110, limits assumed, looked up): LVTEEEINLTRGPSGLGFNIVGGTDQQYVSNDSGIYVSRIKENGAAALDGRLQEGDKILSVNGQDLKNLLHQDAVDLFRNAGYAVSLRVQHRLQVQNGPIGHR

T4: PDZD2_2, O15018
T4 sequence (O15018 329-429, limits assumed, looked up): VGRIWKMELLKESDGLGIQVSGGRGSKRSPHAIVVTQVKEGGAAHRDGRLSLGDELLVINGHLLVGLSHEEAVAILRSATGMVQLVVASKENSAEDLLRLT

T5: FRMPD1, Q5SYB0
T5 sequence (Q5SYB0 52-145, limits assumed, looked up): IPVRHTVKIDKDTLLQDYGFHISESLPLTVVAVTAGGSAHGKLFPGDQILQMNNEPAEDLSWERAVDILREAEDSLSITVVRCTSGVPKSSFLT

T6: PDZRN3_1, Q9UPQ7
T6 sequence (Q9UPQ7 244-349, limits assumed, looked up): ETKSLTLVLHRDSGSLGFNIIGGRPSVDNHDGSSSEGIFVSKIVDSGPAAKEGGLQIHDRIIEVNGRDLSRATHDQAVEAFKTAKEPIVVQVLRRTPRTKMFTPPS

T7: SNTG1, Q9NSN8
T7 sequence (Q9NSN8 52-150, limits assumed, looked up): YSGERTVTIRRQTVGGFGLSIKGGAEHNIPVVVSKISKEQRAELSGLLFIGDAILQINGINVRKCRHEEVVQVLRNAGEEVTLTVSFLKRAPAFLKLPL

T8: GRIP1_2, Q9Y3R0
T8 sequence (Q9Y3R0 145-248, limits assumed, looked up): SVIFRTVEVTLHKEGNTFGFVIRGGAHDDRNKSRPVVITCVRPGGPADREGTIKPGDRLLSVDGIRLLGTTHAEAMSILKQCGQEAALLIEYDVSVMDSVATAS

T9: DFNB31_2, Q9P202
T9 sequence (Q9P202 274-371, limits assumed, looked up): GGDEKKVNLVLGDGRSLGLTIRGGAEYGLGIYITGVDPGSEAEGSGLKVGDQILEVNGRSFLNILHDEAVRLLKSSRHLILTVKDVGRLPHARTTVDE

T10: TX1BP3, O14907
T10 sequence (O14907 10-122, limits assumed, looked up): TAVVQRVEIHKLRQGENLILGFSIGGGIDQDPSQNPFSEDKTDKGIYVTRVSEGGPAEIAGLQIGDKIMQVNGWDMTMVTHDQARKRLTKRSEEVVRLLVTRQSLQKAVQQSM

T11: MPP2, Q14168
T11 sequence (Q14168 180-250, limits assumed, looked up): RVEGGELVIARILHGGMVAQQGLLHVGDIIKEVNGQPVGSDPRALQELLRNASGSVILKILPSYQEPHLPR

T12: LRRC7, Q96NW7
T12 sequence (Q96NW7 1440-1537, limits assumed, looked up): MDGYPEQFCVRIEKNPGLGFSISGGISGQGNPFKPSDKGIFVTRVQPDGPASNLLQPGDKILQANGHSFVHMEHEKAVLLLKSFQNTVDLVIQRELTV

T13: PCLO, Q9Y6V0
T13 sequence (Q9Y6V0 4491-4600, limits assumed, looked up): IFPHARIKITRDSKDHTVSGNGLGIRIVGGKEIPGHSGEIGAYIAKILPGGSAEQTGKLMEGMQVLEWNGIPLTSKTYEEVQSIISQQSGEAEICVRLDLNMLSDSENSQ

T14: TIAM2, Q8IVF5
T14 sequence (Q8IVF5 885-986, limits assumed, looked up): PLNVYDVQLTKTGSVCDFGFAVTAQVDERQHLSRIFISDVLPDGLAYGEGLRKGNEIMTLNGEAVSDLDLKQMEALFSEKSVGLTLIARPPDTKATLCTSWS


Experiments:
Test in all cases: holdup assay
Design in all cases: key: below the threshold = too weak to quantify, mostly under pKd 3.1 to 4
Details in all cases: plain residues with an end cap or a label only (N-terminal biotin on a linker: ado-ado)
[1] = biological target: T1, DFNB31_1, Q9P202
[2] = biological target: T2, PTPN13_1, Q12923
[3] = biological target: FRMPD2_3, Q68DX3
Chain of FRMPD2_3, Q68DX3 (Q68DX3 1073-1166): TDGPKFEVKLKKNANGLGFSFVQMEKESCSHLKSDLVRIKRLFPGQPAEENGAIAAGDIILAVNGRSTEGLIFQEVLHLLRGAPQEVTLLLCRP

[4] = biological target: T3, SYNJ2BP, P57105
[5] = biological target: T4, PDZD2_2, O15018
[6] = biological target: T5, FRMPD1, Q5SYB0
[7] = biological target: DLG5_1, Q8TDM6
Chain of DLG5_1, Q8TDM6 (Q8TDM6 617-713): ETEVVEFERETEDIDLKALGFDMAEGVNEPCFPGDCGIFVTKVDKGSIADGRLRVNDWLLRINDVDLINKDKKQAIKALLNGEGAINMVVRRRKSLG

[8] = biological target: GIPC2, Q8TF65
Chain of GIPC2, Q8TF65 (Q8TF65 112-203): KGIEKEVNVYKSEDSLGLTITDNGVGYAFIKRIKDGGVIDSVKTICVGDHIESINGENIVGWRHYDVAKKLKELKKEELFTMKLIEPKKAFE

[9] = biological target: T6, PDZRN3_1, Q9UPQ7
[10] = biological target: T7, SNTG1, Q9NSN8
[11] = biological target: T8, GRIP1_2, Q9Y3R0
[12] = biological target: T9, DFNB31_2, Q9P202
[13] = biological target: GRIP2_6, Q9C0E4
Chain of GRIP2_6, Q9C0E4 (Q9C0E4 648-740): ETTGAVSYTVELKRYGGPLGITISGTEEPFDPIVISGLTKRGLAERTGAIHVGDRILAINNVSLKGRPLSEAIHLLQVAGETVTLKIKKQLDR

[14] = biological target: T10, TX1BP3, O14907
[15] = biological target: MAGI1_2, Q96QZ7
Chain of MAGI1_2, Q96QZ7 (Q96QZ7 456-580): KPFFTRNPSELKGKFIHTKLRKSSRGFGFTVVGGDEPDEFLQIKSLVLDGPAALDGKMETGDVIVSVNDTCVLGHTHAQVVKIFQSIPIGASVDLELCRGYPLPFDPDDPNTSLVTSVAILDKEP

[16] = biological target: T11, MPP2, Q14168
[17] = biological target: T12, LRRC7, Q96NW7
[18] = biological target: T13, PCLO, Q9Y6V0
[19] = biological target: Inadl_3, Q8NI35
Chain of Inadl_3, Q8NI35 (Q8NI35 359-469): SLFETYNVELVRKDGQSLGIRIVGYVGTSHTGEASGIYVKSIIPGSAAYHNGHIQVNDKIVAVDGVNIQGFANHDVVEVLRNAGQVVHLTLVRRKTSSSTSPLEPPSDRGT

[20] = biological target: T14, TIAM2, Q8IVF5
[21] = biological target: CASK, O14936
Chain of CASK, O14936 (O14936 487-570): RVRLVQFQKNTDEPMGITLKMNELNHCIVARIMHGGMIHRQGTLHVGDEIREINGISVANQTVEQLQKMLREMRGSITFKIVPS

[22] = biological target: SNX27, Q96L92
[23] = biological target: FRMPD4, Q14CM0
Chain of FRMPD4, Q14CM0 (Q14CM0 67-160): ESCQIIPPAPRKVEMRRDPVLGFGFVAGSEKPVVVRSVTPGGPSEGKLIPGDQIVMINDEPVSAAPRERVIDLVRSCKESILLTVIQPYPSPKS

Binder | pKd [1] | pKd [2] | pKd [3] | pKd [4] | pKd [5] | pKd [6] | pKd [7] | pKd [8] | pKd [9] | pKd [10] | pKd [11] | pKd [12] | pKd [13] | pKd [14] | pKd [15] | pKd [16] | pKd [17] | pKd [18] | pKd [19] | pKd [20] | other results
NVYGTESVKI [GRIA3, P42263] | below the threshold | below the threshold | below the threshold | below the threshold | below the threshold | below the threshold | below the threshold | below the threshold | below the threshold | below the threshold | below the threshold | below the threshold | below the threshold | below the threshold | below the threshold | below the threshold | below the threshold | below the threshold | below the threshold | below the threshold | pKd [21]: below the threshold; pKd [22]: below the threshold; pKd [23]: below the threshold
ANGLMQTSKL [SSTR5, P35346] | 4.34 | below the threshold | below the threshold | below the threshold | below the threshold | below the threshold | below the threshold | below the threshold | below the threshold | below the threshold | below the threshold | below the threshold | below the threshold | 4.11 | below the threshold | below the threshold | below the threshold | below the threshold | below the threshold | 3.65 | pKd [21]: below the threshold; pKd [22]: 5.52; pKd [23]: 3.69
QSPPNIYYKV [EFNB3, Q15768] | 3.55 | below the threshold | below the threshold | below the threshold | 3.67 | below the threshold | below the threshold | below the threshold | below the threshold | below the threshold | 3.52 | below the threshold | 4.4 | below the threshold | below the threshold | below the threshold | below the threshold | below the threshold | 3.5 | 4.01 | pKd [21]: below the threshold; pKd [22]: 3.89; pKd [23]: 4.01
NASRTRITFV [MCM7, P33993] | below the threshold | below the threshold | below the threshold | 4.44 | 4.7 | below the threshold | below the threshold | below the threshold | 3.89 | 3.71 | below the threshold | below the threshold | 3.58 | 4.88 | 4.71 | below the threshold | below the threshold | below the threshold | below the threshold | 4.06 | pKd [21]: below the threshold; pKd [22]: 4.85; pKd [23]: below the threshold
ETSLVKGIDI [DENND5A, Q6IQ26] | below the threshold | below the threshold | 3.57 | below the threshold | 4 | below the threshold | below the threshold | 3.54 | below the threshold | below the threshold | below the threshold | below the threshold | 3.55 | below the threshold | below the threshold | below the threshold | below the threshold | below the threshold | 3.53 | below the threshold | pKd [21]: below the threshold; pKd [22]: below the threshold; pKd [23]: below the threshold
SRPRPDDLEI [GJA1, P17302] | below the threshold | below the threshold | below the threshold | below the threshold | below the threshold | below the threshold | below the threshold | below the threshold | below the threshold | below the threshold | below the threshold | below the threshold | below the threshold | below the threshold | below the threshold | below the threshold | below the threshold | below the threshold | 3.47 | below the threshold | pKd [21]: below the threshold; pKd [22]: below the threshold; pKd [23]: below the threshold
